The chains are these.
B1: Transducer of Cdc42-dependent actin assembly protein 2 homolog (Caenorhabditis elegans), Q9XUS7 (parent)
chain: MIPVSRFFTVQDPSNALLSYTQKGIDFFEKLGQFSKEKAAIEEEYSTKLRSLAKKYAKKSEEDDEILKSVSYTSSFNSFLQQLDQIATRHQTSAEHIRGGVVSYVASKTCQMRSSRKNAINDLKTINDKLEDQINEMCKSGKCYLKSFKDAENSYQKFYKADKNLEISRLELEKARALANARNEACELAKQDYSALVRKTNAEQKRYHVELLPVIFARLKAVDKECIADMRQVLQKIVSFDDSLADSTEECRKIMQREVGKIDAEGDAQLVLKSVEATIEQPAPFEIEDLGDPKNCDSRTNDSADGSGGKLLKSSPSKNRIIRNFLGILKEKEADEKPEASNNDQLMYTDKSKPAHVRLSCLRSKIRDMEKQLEQAIQGREGITRLQQAYYTNPQHGNPSACTEPLISYAKKIEKLKMDIHNLKEFYAMLEMSVEEGQERSFGGRDTPDTTRSMSGSSTNQSSSKTIEDVLSGEAGNSSSADDSSKNILRQLFTTPKRLISSPKTSKSSTPTPLRRRAEISSPKILRSSFSGAIRKSLSTPDSVKVETAVTVTALFEFAKSSAETMSIEQGEILLVLEHDHGDGWTRTKNCRKHNEESGFVPTSYLQFPQ

Variants of B1 are the subject of the assay. Particulars: with cdc42_caeel cdc-42, Q05062.
Chain of cdc42_caeel cdc-42, Q05062 (Q05062 whole entry): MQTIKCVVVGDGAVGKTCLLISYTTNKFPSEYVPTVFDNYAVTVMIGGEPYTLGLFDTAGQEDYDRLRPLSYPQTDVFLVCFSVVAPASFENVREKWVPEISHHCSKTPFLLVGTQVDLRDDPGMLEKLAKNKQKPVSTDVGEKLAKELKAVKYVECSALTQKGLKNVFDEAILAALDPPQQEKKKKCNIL
For I413S, the “effect of a mutation on the interaction” value is “disrupting interaction strength”.
